{
  "source": "patent US20060275803A1",
  "about": "“Rat and mouse members of the CRISP family of genes” (Wyeth, priority 2005, published 2006)",
  "molecules": {"B1": {"name": "native rCRISPA (rCRISP1) purified from epididymis in the presence of DANA (protein)", "chain": "QDTTDEWDRDLENLSTTKLSVQEEIINKHNQLRRTVSPSGSDLLRVEWDHDAYVNAQKWANRCIYNHSPLQHRTTTLKCGENLFMANYPASWSSVIQDWYDESLDFVFGFGPKKVGVKVGHYTQVVWNSTFLVACGVAECPDQPLKYFYVCHYCPGGNYVGRLYSPYTEGEPCDSCPGNCEDGLCTNSCEYEDNYSNCGDLKKMVSCDDPLLKEGCRASCFCEDKIH"}},
  "key": {"[1]": {"biological_target": "T1, substrate peptide E19 (RLGREGVQ) (not fully specified)", "T1 chain": "RLGREGVQ"}, "[2]": {"biological_target": "T2, substrate peptide G24 (RRKRSTRE) (not fully specified)", "T2 chain": "RRKRSTRE"}, "[3]": {"biological_target": "T3, substrate peptide N10 (FYRADQPR) (not fully specified)", "T3 chain": "FYRADQPR"}, "[4]": {"biological_target": "T4, substrate peptide M18 (VHRDMAAR) (not fully specified)", "T4 chain": "VHRDMAAR"}, "[5]": {"biological_target": "T5, substrate peptide N08 (RKRRAPLA) (not fully specified)", "T5 chain": "RKRRAPLA"}, "[6]": {"biological_target": "T6, substrate peptide M07 (GLQRALEI) (not fully specified)", "T6 chain": "GLQRALEI"}, "[7]": {"biological_target": "T7, substrate peptide D06 (ALAEAMKK) (not fully specified)", "T7 chain": "ALAEAMKK"}, "[8]": {"biological_target": "T8, substrate peptide N17 (RKRRAVLT) (not fully specified)", "T8 chain": "RKRRAVLT"}, "[9]": {"biological_target": "T9, substrate peptide H17 (NGLRADPM) (not fully specified)", "T9 chain": "NGLRADPM"}, "[10]": {"biological_target": "T10, substrate peptide L16 (KTPRWGG) (not fully specified)", "T10 chain": "KTPRWGG"}, "[11]": {"biological_target": "T11, substrate peptide A09 (RMRRYADA) (not fully specified)", "T11 chain": "RMRRYADA"}, "[12]": {"biological_target": "T12, substrate peptide C16 (RVLGLKAH) (not fully specified)", "T12 chain": "RVLGLKAH"}, "[13]": {"biological_target": "T13, substrate peptide H11 (RRLLRAIP) (not fully specified)", "T13 chain": "RRLLRAIP"}, "[14]": {"biological_target": "T14, substrate peptide N12 (AKRAASQI) (not fully specified)", "T14 chain": "AKRAASQI"}, "[15]": {"biological_target": "T15, substrate peptide B20 (PQRFGRNT) (not fully specified)", "T15 chain": "PQRFGRNT"}, "[16]": {"biological_target": "T16, substrate peptide A10 (SAARPAPP) (not fully specified)", "T16 chain": "SAARPAPP"}, "[17]": {"biological_target": "T17, substrate peptide K11 (VIPRSGGS) (not fully specified)", "T17 chain": "VIPRSGGS"}, "[18]": {"biological_target": "T18, substrate peptide O23 (KNVAMQKG) (not fully specified)", "T18 chain": "KNVAMQKG"}, "[19]": {"biological_target": "T19, substrate peptide O16 (AATRRQAV) (not fully specified)", "T19 chain": "AATRRQAV"}, "[20]": {"biological_target": "T20, substrate peptide H07 (RVKRQVRS) (not fully specified)", "T20 chain": "RVKRQVRS"}, "[21]": {"biological_target": "T21, substrate peptide B22 (APQRFGKK) (not fully specified)", "T21 chain": "APQRFGKK"}, "[22]": {"biological_target": "T22, substrate peptide N05 (RARRELAP) (not fully specified)", "T22 chain": "RARRELAP"}, "[23]": {"biological_target": "T23, substrate peptide B11 (AAGVAPLS) (not fully specified)", "T23 chain": "AAGVAPLS"}, "[24]": {"biological_target": "T24, substrate peptide M16 (RSRREADL) (not fully specified)", "T24 chain": "RSRREADL"}, "[25]": {"biological_target": "T25, substrate peptide M02 (EKQRIIGG) (not fully specified)", "T25 chain": "EKQRIIGG"}, "[26]": {"biological_target": "T26, substrate peptide C01 (GPQGLLGA) (not fully specified)", "T26 chain": "GPQGLLGA"}, "[27]": {"biological_target": "T27, substrate peptide B23 (RVKRYRQS) (not fully specified)", "T27 chain": "RVKRYRQS"}, "[28]": {"biological_target": "T28, substrate peptide J03 (PQLHSTGG) (not fully specified)", "T28 chain": "PQLHSTGG"}, "[29]": {"biological_target": "T29, substrate peptide H01 (RKKRSTKK) (not fully specified)", "T29 chain": "RKKRSTKK"}, "[30]": {"biological_target": "T30, substrate peptide A01 (WQGGRRKF) (not fully specified)", "T30 chain": "WQGGRRKF"}, "[31]": {"biological_target": "T31, substrate peptide M09 (GSQHIRAE) (not fully specified)", "T31 chain": "GSQHIRAE"}, "[32]": {"biological_target": "T32, substrate peptide B17 (RQRYGKRS) (not fully specified)", "T32 chain": "RQRYGKRS"}, "[33]": {"biological_target": "T33, substrate peptide H02 (RAKRSVHF) (not fully specified)", "T33 chain": "RAKRSVHF"}, "[34]": {"biological_target": "T34, substrate peptide C23 (RDAQAHPG) (not fully specified)", "T34 chain": "RDAQAHPG"}, "[35]": {"biological_target": "T35, substrate peptide A05 (SYRKVLGQ) (not fully specified)", "T35 chain": "SYRKVLGQ"}, "[36]": {"biological_target": "T36, substrate peptide A04 (RGARARLG) (not fully specified)", "T36 chain": "RGARARLG"}, "[37]": {"biological_target": "T37, substrate peptide J21 (LRNRAQSG) (not fully specified)", "T37 chain": "LRNRAQSG"}, "[38]": {"biological_target": "T38, substrate peptide H03 (RNKRAVQG) (not fully specified)", "T38 chain": "RNKRAVQG"}, "[39]": {"biological_target": "T39, substrate peptide O22 (GGVRGPRV) (not fully specified)", "T39 chain": "GGVRGPRV"}, "substrate peptide": {"tested_on": "substrate peptide", "experiment": "Protease activity of rCRISPA purified with or without the sialidase inhibitor DANA", "assay_type": "biochemical, rat", "excerpt": "The conservation of protease activity between CRISPA and CRISPC is predicted from both the primary amino acid sequence of the PR-1 domain and the overall domain structure conserved among Tex31 and all mammalian CRISPs. The PR-1 domain of Tex31 is hypothesized to contain a basic substrate recognition site with the predicted catalytic residues His130 and Glu115. The mammalian CRISPs have these residues conserved in the PR-1 domain. […] A sialylated glycan on rCRISPA may be influencing the protein's native confirmation and ability to recognize, bind, or cleave its substrate. If rat CRISPC is glycosylated and sialylated, the glycan may also be involved in the protein's confirmation and ability to recognize, bind, or cleave its substrate.\nA protocol for the purification of rCRISPA (rCRISP1) from the epididymis was published in 1997 (Hall J. C. & Tubbs C. E., Prep. Biochem. Biotechnol. 27:239-51 (1997), incorporated herein by reference). Applicants have modified this protocol to include the following amounts of 2,3-dehydro-2-deoxy-N-acetyineuraminic acid (DANA) as an inhibitor of sialidase activity in each of the following buffers:\nProtease activity was determined by measuring fluorescence (as per the manufacturer's protocol) at ten minute intervals for 130 minutes in the following assay conditions: […] substrate peptide, […] rCRISPA, 100 mM NaCl, 25 mM Tris-Cl, pH 7.5. […]"}},
  "data": [
    {"molecule": "B1", "values": [
      {"measurement": "protease activity (fluorescence of substrate peptide)", "setting": "[1]", "result": "Uncleaved peptides E19 (RLGREGVQ)"},
      {"measurement": "protease activity (fluorescence of substrate peptide)", "setting": "[2]", "result": "Cleaved peptides G24 (RRKRSTRE)"},
      {"measurement": "protease activity (fluorescence of substrate peptide)", "setting": "[3]", "result": "Uncleaved peptides N10 (FYRADQPR)"},
      {"measurement": "protease activity (fluorescence of substrate peptide)", "setting": "[4]", "result": "Uncleaved peptides M18 (VHRDMAAR)"},
      {"measurement": "protease activity (fluorescence of substrate peptide)", "setting": "[5]", "result": "Cleaved peptides N08 (RKRRAPLA)"},
      {"measurement": "protease activity (fluorescence of substrate peptide)", "setting": "[6]", "result": "Uncleaved peptides M07 (GLQRALEI)"},
      {"measurement": "protease activity (fluorescence of substrate peptide)", "setting": "[7]", "result": "Uncleaved peptides D06 (ALAEAMKK)"},
      {"measurement": "protease activity (fluorescence of substrate peptide)", "setting": "[8]", "result": "Cleaved peptides N17 (RKRRAVLT)"},
      {"measurement": "protease activity (fluorescence of substrate peptide)", "setting": "[9]", "result": "Cleaved peptides H17 (NGLRADPM)"},
      {"measurement": "protease activity (fluorescence of substrate peptide)", "setting": "[10]", "result": "Uncleaved peptides L16 (KTPRWGG)"},
      {"measurement": "protease activity (fluorescence of substrate peptide)", "setting": "[11]", "result": "Cleaved peptides A09 (RMRRYADA)"},
      {"measurement": "protease activity (fluorescence of substrate peptide)", "setting": "[12]", "result": "Cleaved peptides C16 (RVLGLKAH)"},
      {"measurement": "protease activity (fluorescence of substrate peptide)", "setting": "[13]", "result": "Cleaved peptides H11 (RRLLRAIP)"},
      {"measurement": "protease activity (fluorescence of substrate peptide)", "setting": "[14]", "result": "Cleaved peptides N12 (AKRAASQI)"},
      {"measurement": "protease activity (fluorescence of substrate peptide)", "setting": "[15]", "result": "Cleaved peptides B20 (PQRFGRNT)"},
      {"measurement": "protease activity (fluorescence of substrate peptide)", "setting": "[16]", "result": "Uncleaved peptides A10 (SAARPAPP)"},
      {"measurement": "protease activity (fluorescence of substrate peptide)", "setting": "[17]", "result": "Uncleaved peptides K11 (VIPRSGGS)"},
      {"measurement": "protease activity (fluorescence of substrate peptide)", "setting": "[18]", "result": "Cleaved peptides O23 (KNVAMQKG)"},
      {"measurement": "protease activity (fluorescence of substrate peptide)", "setting": "[19]", "result": "Cleaved peptides O16 (AATRRQAV)"},
      {"measurement": "protease activity (fluorescence of substrate peptide)", "setting": "[20]", "result": "Cleaved peptides H07 (RVKRQVRS)"},
      {"measurement": "protease activity (fluorescence of substrate peptide)", "setting": "[21]", "result": "Cleaved peptides B22 (APQRFGKK)"},
      {"measurement": "protease activity (fluorescence of substrate peptide)", "setting": "[22]", "result": "Cleaved peptides N05 (RARRELAP)"},
      {"measurement": "protease activity (fluorescence of substrate peptide)", "setting": "[23]", "result": "Uncleaved peptides B11 (AAGVAPLS)"},
      {"measurement": "protease activity (fluorescence of substrate peptide)", "setting": "[24]", "result": "Uncleaved peptides M16 (RSRREADL)"},
      {"measurement": "protease activity (fluorescence of substrate peptide)", "setting": "[25]", "result": "Cleaved peptides M02 (EKQRIIGG)"},
      {"measurement": "protease activity (fluorescence of substrate peptide)", "setting": "[26]", "result": "Uncleaved peptides C01 (GPQGLLGA)"},
      {"measurement": "protease activity (fluorescence of substrate peptide)", "setting": "[27]", "result": "Cleaved peptides B23 (RVKRYRQS)"},
      {"measurement": "protease activity (fluorescence of substrate peptide)", "setting": "[28]", "result": "Uncleaved peptides J03 (PQLHSTGG)"},
      {"measurement": "protease activity (fluorescence of substrate peptide)", "setting": "[29]", "result": "Cleaved peptides H01 (RKKRSTKK)"},
      {"measurement": "protease activity (fluorescence of substrate peptide)", "setting": "[30]", "result": "Uncleaved peptides A01 (WQGGRRKF)"},
      {"measurement": "protease activity (fluorescence of substrate peptide)", "setting": "[31]", "result": "Uncleaved peptides M09 (GSQHIRAE)"},
      {"measurement": "protease activity (fluorescence of substrate peptide)", "setting": "[32]", "result": "Cleaved peptides B17 (RQRYGKRS)"},
      {"measurement": "protease activity (fluorescence of substrate peptide)", "setting": "[33]", "result": "Uncleaved peptides H02 (RAKRSVHF)"},
      {"measurement": "protease activity (fluorescence of substrate peptide)", "setting": "[34]", "result": "Uncleaved peptides C23 (RDAQAHPG)"},
      {"measurement": "protease activity (fluorescence of substrate peptide)", "setting": "[35]", "result": "Uncleaved peptides A05 (SYRKVLGQ)"},
      {"measurement": "protease activity (fluorescence of substrate peptide)", "setting": "[36]", "result": "Cleaved peptides A04 (RGARARLG)"},
      {"measurement": "protease activity (fluorescence of substrate peptide)", "setting": "[37]", "result": "Cleaved peptides J21 (LRNRAQSG)"},
      {"measurement": "protease activity (fluorescence of substrate peptide)", "setting": "[38]", "result": "Cleaved peptides H03 (RNKRAVQG)"},
      {"measurement": "protease activity (fluorescence of substrate peptide)", "setting": "[39]", "result": "Cleaved peptides O22 (GGVRGPRV)"},
      {"measurement": "protease activity of rCRISPA", "setting": "substrate peptide; purified using known procedures without DANA present", "result": "lacking protease activity"},
      {"measurement": "protease activity of rCRISPA", "setting": "substrate peptide; purified with DANA present", "result": "with protease activity"}
    ]}
  ]
}
